In patent US20250388669A1 (published 2025):

T1: B7H3 (UniProt Q5ZPR3 29-466, limits assumed)
T1 sequence (looked up): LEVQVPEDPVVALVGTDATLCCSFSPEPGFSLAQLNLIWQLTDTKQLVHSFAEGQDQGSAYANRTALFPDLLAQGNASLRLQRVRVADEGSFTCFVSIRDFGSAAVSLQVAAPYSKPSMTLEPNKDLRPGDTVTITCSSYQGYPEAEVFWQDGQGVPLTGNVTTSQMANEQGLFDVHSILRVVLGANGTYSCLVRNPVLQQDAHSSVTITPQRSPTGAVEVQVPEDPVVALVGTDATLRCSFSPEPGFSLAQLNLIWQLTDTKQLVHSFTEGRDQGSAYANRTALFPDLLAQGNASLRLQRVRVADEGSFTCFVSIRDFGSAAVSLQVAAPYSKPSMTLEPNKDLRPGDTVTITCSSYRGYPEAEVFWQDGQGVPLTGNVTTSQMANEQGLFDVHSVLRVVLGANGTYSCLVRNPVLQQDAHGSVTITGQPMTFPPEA

B1: Ly1630 (antibody, V domains shown)
VH: QVQLVQSGAEVKKPGASVKVSCKASGYTFAGFEMHWVRQAPGQGLEWMGAIDPKTGGTDYNQKFKDRVTMTRDTSISTAYMELSRLRSDDTAVYYCARDLGYFDVWGQGTLVTVSS
VL: DIQMTQSPSSLSASVGDRVTITCRASQDIRSNLNWYQQKPGGAVKLLIYYTSRLHSGVPSRFSGSGSGTDYTLTISSLQPEDFATYFCQQSEKLPRTFGGGTKVEIR
notes: Parent mAb; also called Anti-CD137 Ly1630; parent anti-CD137 mAb
B2: Ly2118 (other)
chain 1: QVQLVQSGAEVKKPGASVKVSCKASGYTFTSYVMHWVRQKPGQGLEWIGYINPYNEGTESTDKFKGRATMTSDKSTSTVYMELSSLRSEDTAVYYCASIYYGYEGTYFGVWGQGTLVTVSSASTKGPSVFPLAPSSKSTSGGTAALGCLVKDYFPEPVTVSWNSGALTSGVHTFPAVLQSSGLYSLSSVVTVPSSSLGTQTYICNVNHKPSNTKVDKKVEPKSCGGGGSGGGGSGGGGSGGGGSQVQLVQSGAEVKKPGASVKVSCKASGYTFAGFEMHWVRQAPGQGLEWMGAIDPKTGGTDYNQKFKDRVTMTRDTSISTAYMELSRLRSDDTAVYYCARDLGYFDVWGQGTLVTVSSGGGGSDKTHTCPPCPAPEAAGPSVFLFPPKPKDTLMISRTPEVTCVVVDVSHEDPEVKFNWYVDGVEVHNAKTKPREEQYNSTYRVVSVLTVLHQDWLNGKEYKCKVSNKALPAPIEKTISKAKGQPREPQVYTLPPSREEMTKNQVSLWCLVKGFYPSDIAVEWESNGQPENNYKTTPPVLDSDGSFFLYSKLTVDKSRWQQGNVFSCSVMHEALHNHYTQKSLSLSPGGGGGSGGGGSGGGGSGGGGSQVTLKESGPALVKPTQTLTLTCTFSGFSLSTSGTCVSWIRQPPGKALEWLATICWEDSKGYNPSLKSRLTISKDTSKNQAVLTMTNMDPVDTATYYCARREDSGYFWFPYWGQGTLVTVSS
chain 2: QVQLVQSGAEVKKPGASVKVSCKASGYTFTSYVMHWVRQKPGQGLEWIGYINPYNEGTESTDKFKGRATMTSDKSTSTVYMELSSLRSEDTAVYYCASIYYGYEGTYFGVWGQGTLVTVSSASTKGPSVFPLAPSSKSTSGGTAALGCLVKDYFPEPVTVSWNSGALTSGVHTFPAVLQSSGLYSLSSVVTVPSSSLGTQTYICNVNHKPSNTKVDKKVEPKSCGGGGSGGGGSGGGGSGGGGSDIQMTQSPSSLSASVGDRVTITCRASQDIRSNLNWYQQKPGGAVKLLIYYTSRLHSGVPSRFSGSGSGTDYTLTISSLQPEDFATYFCQQSEKLPRTFGGGTKVEIRGGGGSDKTHTCPPCPAPEAAGPSVFLFPPKPKDTLMISRTPEVTCVVVDVSHEDPEVKFNWYVDGVEVHNAKTKPREEQYNSTYRVVSVLTVLHQDWLNGKEYKCKVSNKALPAPIEKTISKAKGQPREPQVYTLPPSREEMTKNQVSLSCAVKGFYPSDIAVEWESNGQPENNYKTTPPVLDSDGSFFLVSKLTVDKSRWQQGNVFSCSVMHEALHNRFTQKSLSLSPGGGGGSGGGGSGGGGSGGGGSNIQMTQSPSSLSASVGDRVTITCKAGQNVNNYLAWYQQKPGKAPKVLIFNANSLQTGVPSRFSGSGSGTDFTLTISSLQPEDFATYYCQQYNSWPTFGGGTKVEIK
light: EIVLTQSPATLSLSPGERATLSCRASSSVSYMHWYQQKPGQAPRPWIYATSNLASGIPARFSGSRSGTDYTLTISSLEPEDFAVYYCQQWSSNTLTFGGGTKVEIKRTVAAPSVFIFPPSDEQLKSGTASVVCLLNNFYPREAKVQWKVDNALQSGNSQESVTEQDSKDSTYSLSSTLTLSKADYEKHKVYACEVTHQGLSSPVTKSFNRGEC
notes: Tri-specific antibody: B7H3 Fabs, central CD137 Fv, terminal PD-1 Fv
B3: Ly2434 (bispecific antibody, human IgG1, kappa)
heavy 1: QVQLVQSGAEVKKPGASVKVSCKASGYTFTSYVMHWVRQKPGQGLEWIGYINPYNEGTESTDKFKGRATMTSDKSTSTVYMELSSLRSEDTAVYYCASIYYGYEGTYFGVWGQGTLVTVSSASTKGPSVFPLAPSSKSTSGGTAALGCLVKDYFPEPVTVSWNSGALTSGVHTFPAVLQSSGLYSLSSVVTVPSSSLGTQTYICNVNHKPSNTKVDKKVEPKSCDKTHTCPPCPAPEAAGPSVFLFPPKPKDTLMISRTPEVTCVVVDVSHEDPEVKFNWYVDGVEVHNAKTKPREEQYNSTYRVVSVLTVLHQDWLNGKEYKCKVSNKALPAPIEKTISKAKGQPREPQVYTLPPSREEMTKNQVSLWCLVKGFYPSDIAVEWESNGQPENNYKTTPPVLDSDGSFFLYSKLTVDKSRWQQGNVFSCSVMHEALHNHYTQKSLSLSPGGGGGSGGGGSGGGGSGGGGSEVQLVESGGGLVQPGGSLRLSCAASGFTFTNYGLHWVRQAPGKGLEWVSSISPSGGVTYYRDSVKGRFTISRDNSKNTLYLQMNSLRAEDTAVYYCAKPFLGWGGANWIAHWGQGTLVTVSS
heavy 2: QVQLVQSGAEVKKPGASVKVSCKASGYTFTSYVMHWVRQKPGQGLEWIGYINPYNEGTESTDKFKGRATMTSDKSTSTVYMELSSLRSEDTAVYYCASIYYGYEGTYFGVWGQGTLVTVSSASTKGPSVFPLAPSSKSTSGGTAALGCLVKDYFPEPVTVSWNSGALTSGVHTFPAVLQSSGLYSLSSVVTVPSSSLGTQTYICNVNHKPSNTKVDKKVEPKSCDKTHTCPPCPAPEAAGPSVFLFPPKPKDTLMISRTPEVTCVVVDVSHEDPEVKFNWYVDGVEVHNAKTKPREEQYNSTYRVVSVLTVLHQDWLNGKEYKCKVSNKALPAPIEKTISKAKGQPREPQVYTLPPSREEMTKNQVSLSCAVKGFYPSDIAVEWESNGQPENNYKTTPPVLDSDGSFFLVSKLTVDKSRWQQGNVFSCSVMHEALHNRFTQKSLSLSPGGGGGSGGGGSGGGGSGGGGSDIQMTQSPSSLSASVGDRVTITCLASEDISNDLAWYQQKPGKAPKLLIYFVDRLLDGVPSRFSGSGSGTDFTLTISSLQPEDFATYYCQQSYKYPPTFGQGTKLEIK
light: EIVLTQSPATLSLSPGERATLSCRASSSVSYMHWYQQKPGQAPRPWIYATSNLASGIPARFSGSRSGTDYTLTISSLEPEDFAVYYCQQWSSNTLTFGGGTKVEIKRTVAAPSVFIFPPSDEQLKSGTASVVCLLNNFYPREAKVQWKVDNALQSGNSQESVTEQDSKDSTYSLSSTLTLSKADYEKHKVYACEVTHQGLSSPVTKSFNRGEC
notes: B7H3 Fabs x terminal CD40 Fv (TM559)
B4: Ly2428 (bispecific antibody)
heavy 1: QVQLVQSGAEVKKPGASVKVSCKASGYTFTSYVMHWVRQKPGQGLEWIGYINPYNEGTESTDKFKGRATMTSDKSTSTVYMELSSLRSEDTAVYYCASIYYGYEGTYFGVWGQGTLVTVSSASTKGPSVFPLAPSSKSTSGGTAALGCLVKDYFPEPVTVSWNSGALTSGVHTFPAVLQSSGLYSLSSVVTVPSSSLGTQTYICNVNHKPSNTKVDKKVEPKSCGGGGSGGGGSGGGGSGGGGSEVQLVESGGGLVQPGGSLRLSCAASGFTFTNYGLHWVRQAPGKGLEWVSSISPSGGVTYYRDSVKGRFTISRDNSKNTLYLQMNSLRAEDTAVYYCAKPFLGWGGANWIAHWGQGTLVTVSSGGGGSDKTHTCPPCPAPEAAGPSVFLFPPKPKDTLMISRTPEVTCVVVDVSHEDPEVKFNWYVDGVEVHNAKTKPREEQYNSTYRVVSVLTVLHQDWLNGKEYKCKVSNKALPAPIEKTISKAKGQPREPQVYTLPPSREEMTKNQVSLWCLVKGFYPSDIAVEWESNGQPENNYKTTPPVLDSDGSFFLYSKLTVDKSRWQQGNVFSCSVMHEALHNHYTQKSLSLSPG
heavy 2: QVQLVQSGAEVKKPGASVKVSCKASGYTFTSYVMHWVRQKPGQGLEWIGYINPYNEGTESTDKFKGRATMTSDKSTSTVYMELSSLRSEDTAVYYCASIYYGYEGTYFGVWGQGTLVTVSSASTKGPSVFPLAPSSKSTSGGTAALGCLVKDYFPEPVTVSWNSGALTSGVHTFPAVLQSSGLYSLSSVVTVPSSSLGTQTYICNVNHKPSNTKVDKKVEPKSCGGGGSGGGGSGGGGSGGGGSDIQMTQSPSSLSASVGDRVTITCLASEDISNDLAWYQQKPGKAPKLLIYFVDRLLDGVPSRFSGSGSGTDFTLTISSLQPEDFATYYCQQSYKYPPTFGQGTKLEIKGGGGSDKTHTCPPCPAPEAAGPSVFLFPPKPKDTLMISRTPEVTCVVVDVSHEDPEVKFNWYVDGVEVHNAKTKPREEQYNSTYRVVSVLTVLHQDWLNGKEYKCKVSNKALPAPIEKTISKAKGQPREPQVYTLPPSREEMTKNQVSLSCAVKGFYPSDIAVEWESNGQPENNYKTTPPVLDSDGSFFLVSKLTVDKSRWQQGNVFSCSVMHEALHNRFTQKSLSLSPG
light: EIVLTQSPATLSLSPGERATLSCRASSSVSYMHWYQQKPGQAPRPWIYATSNLASGIPARFSGSRSGTDYTLTISSLEPEDFAVYYCQQWSSNTLTFGGGTKVEIKRTVAAPSVFIFPPSDEQLKSGTASVVCLLNNFYPREAKVQWKVDNALQSGNSQESVTEQDSKDSTYSLSSTLTLSKADYEKHKVYACEVTHQGLSSPVTKSFNRGEC
notes: B7H3 Fabs x central CD40 Fv (TM559)

Assays:
CD137 = biological target: T2, CD137 (human, UniProt Q07011 24-186); test: CD137 binding (method not given)
T2 construct: In the reporter assay it is whole, on GS-H2-huCD137 cells; also called 4-1BB; huCD137

B7H3 = biological target: T1, B7H3; test: FCM or ELISA, graded
CD40 = CD40 (UniProt P25942 21-193, limits assumed); test: FCM or ELISA, graded
Sequence of CD40 (P25942 21-193 limits assumed): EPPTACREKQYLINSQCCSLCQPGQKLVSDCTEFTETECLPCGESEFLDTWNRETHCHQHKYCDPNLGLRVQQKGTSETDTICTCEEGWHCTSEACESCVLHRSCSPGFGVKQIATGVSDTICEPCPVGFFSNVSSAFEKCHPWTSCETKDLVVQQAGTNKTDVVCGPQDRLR

Binder	EC50 (CD137) [µg/mL]	binding result (B7H3)	binding result (CD40)
B1	0.08		
B2	1.78		
B3		binds	binds
B4		binds	binds
